In PMC10511788, “Solution structure of the HOIL-1L NZF domain reveals a conformational switch regulating linear ubiquitin affinity” (The Journal of Biological Chemistry, 2023) one finds Kd data, which are given here for 1 molecule.

The assay concerns the target T1, M1-linked di-ubiquitin (UniProt P0CG48 1-76; P0CG48 1-76).
T1 construct: ubiquitin, distal (N-terminal) moiety, M1-G76, its G76 joined by a peptide bond to M1 of the next moiety; ubiquitin, proximal (C-terminal) moiety, M1-G76, with the free C-terminal carboxylate; Two ubiquitin units head to tail on one chain; also called linear di-Ub; linear (head-to-tail) di-Ub
As to the kind of experiment: ITC; 298 K, MicroCal iTC200; linear di-Ub (1 mM) in the syringe, HOIL-1L NZF (100 uM) in the cell (several experiments at half of these); 20 mM HEPES pH 7.0, 50 mM sodium chloride, 1 mM TCEP; one set of sites model; three independent experiments. As to conditions: both partners purified.

B1: mouse HOIL-1L NZF domain (residues Pro192-Gln250) T207D (domain or fragment)
chain: GPLGSPEPVGWQCPGCTFINKPDRPGCEMCCRARPETYQIPASYQPDEEERARLAGEEEALRQYQQ
notes: HOIL-1L, mouse, NZF domain with tail, residues Pro192-Gln250, point mutant T207D; Point mutation made by PCR on the plasmid of m1; also called phosphomimetic HOIL-1L NZF; T207D HOIL-1L NZF; source: E. coli, autoinduction in N-5052 media, purified; not shown: GST, N-terminal, cleaved
Regarding B1, the Kd amounted to 10.3 µM. In other words, the double-digit micromolar range.
